In paper PMC3120933 (Journal of the American Chemical Society, 2011):

T1: cav(1-104), truncated caveolin-1 with intramembrane and C-terminal domains deleted (human, UniProt Q03135 1-104)
T1 sequence (looked up): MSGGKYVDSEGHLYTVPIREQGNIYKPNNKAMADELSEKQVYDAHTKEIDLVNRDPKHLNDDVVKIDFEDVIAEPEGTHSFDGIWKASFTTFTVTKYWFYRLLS


Biological target: T1, cav(1-104), truncated caveolin-1 with …
Experiment: ITC

Row | Binder | dH1 (first binding site) [kcal/mol] | dH2 (second binding site) [kcal/mol]
1 | YTSLIHSLIEESQNQQEKQEKELMELERWGSMLKCF (designed binder) [caveolin ligand 4 fused to MBP] | -20.6 | 44.8
2 | YTSLIHSLIEESQNQQEKHEKEIIDIERWASMLQLF (designed binder) [caveolin ligand 5 fused to MBP] | -26.1 | 83.9
